From US12472269B2, “Liver-specific inducible promoters and methods of use thereof” (ASKBIO INC., priority 2019, dated 2025)

How the values were obtained:
AXOL ARE-hepatocytes = assay: Luciferase expression from PBREM promoters in AXOL ARE-hepatocytes, induction by CITCO; format: cell-based, human; conditions: 1 μM CITCO
Huh7 cells = assay: Luciferase expression from PB1-MinTK construct in Huh7 cells transfected with CAR plasmid, induction by TCPOBOP; format: cell-based, human
Excerpt: • Huh7 cells which are a human liver cell line • DPBS: without CaCl2, without MgCl2 (Gibco, 14190-094) • DMEM (Sigma, D6546) • FBS (Sigma, F9665) • Pen-Strep (Sigma, P4333) • Promega Fugene-HD (E2311) • TCPOBOP (Sigma, T2320) • CITCO (Cayman Chemicals Company, 16027) • pcDNA6 plasmid which contains the β-galactosidase gene used as internal control for transfection efficiency (Thermofisher, V22020) • mouse CAR expression plasmid from Jouan et al, 2016 (BioCat GmbH, EX-Z4288-M51-10-GC). This was used as Huh7 is CAR deficient. • β-galactosidase substrate solution (Thermofisher, 75707/75710) • Pierce BCA kit (23225) • LARII (Dual Luciferase Reporter 1000 assay system, Promega, E1980) • EPO ELISA kit (Abcam, ab119522) Method: Day 1 • Cells were seeded onto a 48 well plate at a density of 25,000 cells/300 μl Day 2 • On the day of transfection, DNA to be transfected (CAR plasmid/PB1-MinTK operably linked with luciferase or EPO/pcDNA6 plasmid for internal control) was diluted to a 100 ng/μl stock solution. Per 48 Well Transfection: • 45 ng of DNA (15 ng of each plasmid, pcDNA6, CAR and test plasmid) was mixed with 4.1 μl of Optimem medium. • 0.5 μl of Fusion HD was mixed with 4 μl of Optimem medium. • These 2 solutions were mixed and incubated at room temperature for 15 minutes. • The final solution was then added to the well drop wise. • 3 hrs after transfection, the inducer TCPOBOP was added to the appropriate wells at the indicated concentration. Day 3 • 24 hrs after induction the media was removed from the cells. • The cells were washed once in 300 μl of DPBS • Cells were lysed using 100 μl of passive lysis buffer and incubation with rocking for 15 minutes • The cell debris was pelleted by centrifugation of the plate at max speed in a benchtop centrifuge for 1 min • For luciferase, 10 μl sample was transferred into white 96-well plate and luminescence measured by injection of 50 μl of LARII substrate. • β-galactosidase activity was measured as per manufacturer's instructions (Mammalian β-Galactosidase Assay Kit, 75707/75710, Thermo Scientific) using 25 μl of lysate. 25 μl of lysate was transferred into a microplate well and mixed with 25 μl of β-galactosidase Assay Reagent, equilibrated to room temperature. The mixture was incubated at 37° C. for 30 min and absorbance measured at 405 nm. • Protein concentration was measured as per manufacturer's instructions (Pierce™ BCA Protein Assay Kit, 23225/23227, Thermo Scientific) using 25 μl of lysate. 25 μl of lysate was transferred into a microplate well and mixed with 200 μl of working solution. The mixture was incubated at 37° C. for 30 min, cooled to room temperature and then absorbance measured around 562 nm. The protein concentration was calculated with respect to protein standard curve prepared from assaying standards with known protein concentration.
Luciferase readouts were normalised to both β-galactosidase and protein concentration in the lysate to produce normalised relative luminometer units (RLUs).
To compare across experiments the strength of the promoters was compared to CMV-IE promoter which was driving the same gene as the PBREM-containing constructs, which is included in every experiment.
The PB1-MinTK construct was cloned into the vector pGL4.10 using the KpnI and NcoI restriction sites. This places the promoters directly upstream of the firefly luciferase reporter gene. The PB1-MinTK construct contains the 51 bp enhancer and the MinTK minimal promoter from Herpes Thymidine kinase gene.

B1: PB1-MinTK: promoter: single mouse PBREM element and MinTK minimal promoter, SEQ ID NO: 7 (nucleic acid)
DNA: TCTGTACTTTCCTGACCTTGGCACAGTGCCACCATCAACTTGCCTGACACCGATCCGGCCCCGCCCAGCGTCTTGTCATTGGCGAATTCGAACACGCAGATGCAGTCGGGGCGGCGCGGTCCGAGGTCCACTTCGCATATTAAGGTGACGCGTGTGGCCTCGAACACCGAGCGACCCTGCAGCGACCCGCTTAACAGCGTCAACAGCGTGCCGCAGATCTCGAGGAGCTTGGCGAGATTTTCAGGAGCTAAGGAAGCTAAAC
modifications: PB1-MinTK
expression level compared to CMV-IE (AXOL ARE-hepatocytes): 20% | induction of luciferase expression (AXOL ARE-hepatocytes; readout 24 hrs after induction): around 7 fold | induction of the promoter (luciferase) (Huh7 cells; 50 nM or 150 nM TCPOBOP, 24 hrs after induction): up to 6 fold | response of the promoter (luciferase) (Huh7 cells; 250 nM TCPOBOP): did not illicit a response | luciferase expression as ratio of CMV-IE promoter (Huh7 cells; TCPOBOP induced, one PBREM element with MinTK): 40% | luciferase activity from the promoter (leaky expression) (Huh7 cells; cells treated with vehicle (DMSO)): very little measurable luciferase activity | luciferase activity (Huh7 cells; no CAR transfected, 150 nM TCPOBOP): no measurable activity | luciferase expression (Huh7 cells; presence of CAR and 150 nM TCPOBOP): high
